# Laboratory results published in patent publication US20230277625A1.
# Substitutions are numbered along the chain they refer to. Names may count otherwise.
# T1: Human IL-18Rα ectodomain (amino acids 19-329), biotinylated (human), Q13478
# T1 chain: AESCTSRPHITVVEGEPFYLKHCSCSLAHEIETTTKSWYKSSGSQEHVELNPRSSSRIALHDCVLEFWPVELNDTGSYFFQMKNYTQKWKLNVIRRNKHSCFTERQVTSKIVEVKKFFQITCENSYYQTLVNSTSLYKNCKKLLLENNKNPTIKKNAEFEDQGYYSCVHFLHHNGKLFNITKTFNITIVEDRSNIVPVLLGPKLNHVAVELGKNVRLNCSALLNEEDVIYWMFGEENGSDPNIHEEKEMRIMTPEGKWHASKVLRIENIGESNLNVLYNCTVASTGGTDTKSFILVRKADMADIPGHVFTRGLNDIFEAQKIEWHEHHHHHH
# B1: SEQ ID NO: 125 (human D2D IL-18 consensus hD2D-CS3), Q14116 37-193 (ligand)
# chain: YFGKLESKLSVIRNLNGQVLFIDQGNRPLFADMESSDCRDNAPRTIFIISFYKDSQPRGLAVTISVKCEKISTLSCENKIISFKEMNPPDNIKDTKSDIIFFLRSVPGHDNKMQFESSSYEGYFLACEKERDLFKLILKKEDELGDRSIMFTVQNED
# modifications: here or on the partner: biotin on the AviTag (BirA ligase)
# B2: SEQ ID NO: 124 (human D2D IL-18 consensus hD2D-CS2), Q14116 37-193 (ligand)
# chain: B1 chain with E34T, L60M
# modifications: here or on the partner: biotin on the AviTag (BirA ligase)
# B3: SEQ ID NO: 123 (human D2D IL-18 consensus hD2D-CS1), Q14116 37-193 (ligand)
# chain: B1 chain with E34T, S35D, F51M, L60M
# modifications: here or on the partner: biotin on the AviTag (BirA ligase)
# Target: T1, Human IL-18Rα ectodomain (amino acids …)
# Experiment: on-yeast binding isotherm (flow cytometry), drawn summary table, IL18Rα (KD)
# Conditions: remark: other sources report otherwise
row,Binder,Kd
1,B1,9.7 µM
2,B2,21 µM
3,B3,0.43 µM
